Measurements reported in US20220089647A1 (FUJIFILM, published 2022).
Starred links: 1 amine or outer side, 2 acyl side, 3 side chain; linkers in the order of their positions; H or OH if unused. Positions of bridges follow the written chain, without caps; N, C: chain ends. Non-standard residues stand in square brackets, D forms with d. Primed or numbered codes have the meaning given here. No end group written: not given here. Dab(acetyl)″ = 2-amino-4-(acetylamino)butanoic acid, acetyl CH3 carbon bonded to the S of Hcy (S-CH2-C(=O)-NH-), O=C(C[*:3])NCC[C@H](N[*:1])C(=O)[*:2]; Dab(acetyl) = 2-amino-4-acetylamino-butanoic acid residue (N-γ-acetyl-diaminobutyric acid), CC(=O)NCC[C@H](N[*:1])C(=O)[*:2]; COCH2 = acetyl group that carries the bridge; hCys = N[C@@H](CCS)C(=O)O; Dab = NCC[C@H](N)C(=O)O; Dap = NC[C@H](N)C(=O)O; βAla = NCCC(=O)O

B1: Cyclic peptide 50 (peptide)
peptide: KKKA[hCys]EPRGDNYR[Dab(acetyl)″]-NH2
modifications: thioether 5-14; N-terminus assumed
SMILES: C[C@H](NC(=O)[C@H](CCCCN)NC(=O)[C@H](CCCCN)NC(=O)[C@@H](N)CCCCN)C(=O)N[C@H]1CCSCC(=O)NCC[C@@H](C(N)=O)NC(=O)[C@H](CCCNC(=N)N)NC(=O)[C@H](Cc2ccc(O)cc2)NC(=O)[C@H](CC(N)=O)NC(=O)[C@H](CC(=O)O)NC(=O)CNC(=O)[C@H](CCCNC(=N)N)NC(=O)[C@@H]2CCCN2C(=O)[C@H](CCC(=O)O)NC1=O
B2: Cyclic peptide 51 (peptide)
peptide: KKK[βAla][hCys]EPRGDNYR[Dab(acetyl)″]-NH2
modifications: thioether 5-14; N-terminus assumed
SMILES: N=C(N)NCCC[C@@H]1NC(=O)[C@H](Cc2ccc(O)cc2)NC(=O)[C@H](CC(N)=O)NC(=O)[C@H](CC(=O)O)NC(=O)CNC(=O)[C@H](CCCNC(=N)N)NC(=O)[C@@H]2CCCN2C(=O)[C@H](CCC(=O)O)NC(=O)[C@@H](NC(=O)CCNC(=O)[C@H](CCCCN)NC(=O)[C@H](CCCCN)NC(=O)[C@@H](N)CCCCN)CCSCC(=O)NCC[C@@H](C(N)=O)NC1=O

These binders were tested against T1, human integrin αvβ5 (human, UniProt P06756 31-992; P18084 24-719, limits assumed) (assay: SPR, Biacore 3000, peptide immobilised; A = KD 50 nM or less).
T1 construct: Heterodimer flowed as analyte at 30, 100, 300 and 1,000 nM in HEPES buffer with 5 mM MgCl2
T1 sequence (P06756 31-992 limits assumed, chain 1 of 2): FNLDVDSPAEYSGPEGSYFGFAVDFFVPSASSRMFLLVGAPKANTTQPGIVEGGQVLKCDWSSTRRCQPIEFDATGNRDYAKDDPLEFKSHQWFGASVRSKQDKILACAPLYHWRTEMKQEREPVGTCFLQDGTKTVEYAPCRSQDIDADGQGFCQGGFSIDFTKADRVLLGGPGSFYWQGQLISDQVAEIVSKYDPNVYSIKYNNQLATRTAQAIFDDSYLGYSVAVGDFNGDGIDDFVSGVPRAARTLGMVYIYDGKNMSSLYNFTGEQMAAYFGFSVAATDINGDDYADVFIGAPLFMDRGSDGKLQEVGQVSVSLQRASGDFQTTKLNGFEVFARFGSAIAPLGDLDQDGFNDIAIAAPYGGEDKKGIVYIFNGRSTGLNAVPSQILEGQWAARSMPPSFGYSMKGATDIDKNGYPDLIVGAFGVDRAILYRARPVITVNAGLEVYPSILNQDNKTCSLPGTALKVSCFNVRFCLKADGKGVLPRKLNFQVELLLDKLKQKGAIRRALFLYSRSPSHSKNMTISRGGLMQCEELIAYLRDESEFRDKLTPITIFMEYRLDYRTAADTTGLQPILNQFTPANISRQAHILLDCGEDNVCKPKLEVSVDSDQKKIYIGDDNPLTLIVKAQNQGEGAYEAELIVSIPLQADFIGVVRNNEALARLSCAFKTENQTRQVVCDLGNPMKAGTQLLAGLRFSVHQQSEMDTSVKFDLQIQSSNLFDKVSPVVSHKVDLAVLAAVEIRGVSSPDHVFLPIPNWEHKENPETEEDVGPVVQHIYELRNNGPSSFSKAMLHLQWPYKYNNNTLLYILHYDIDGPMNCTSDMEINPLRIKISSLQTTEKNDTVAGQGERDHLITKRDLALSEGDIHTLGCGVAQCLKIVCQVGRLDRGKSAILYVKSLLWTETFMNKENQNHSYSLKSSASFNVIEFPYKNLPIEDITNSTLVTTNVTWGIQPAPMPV
T1 sequence (P18084 24-719 limits assumed, chain 2 of 2): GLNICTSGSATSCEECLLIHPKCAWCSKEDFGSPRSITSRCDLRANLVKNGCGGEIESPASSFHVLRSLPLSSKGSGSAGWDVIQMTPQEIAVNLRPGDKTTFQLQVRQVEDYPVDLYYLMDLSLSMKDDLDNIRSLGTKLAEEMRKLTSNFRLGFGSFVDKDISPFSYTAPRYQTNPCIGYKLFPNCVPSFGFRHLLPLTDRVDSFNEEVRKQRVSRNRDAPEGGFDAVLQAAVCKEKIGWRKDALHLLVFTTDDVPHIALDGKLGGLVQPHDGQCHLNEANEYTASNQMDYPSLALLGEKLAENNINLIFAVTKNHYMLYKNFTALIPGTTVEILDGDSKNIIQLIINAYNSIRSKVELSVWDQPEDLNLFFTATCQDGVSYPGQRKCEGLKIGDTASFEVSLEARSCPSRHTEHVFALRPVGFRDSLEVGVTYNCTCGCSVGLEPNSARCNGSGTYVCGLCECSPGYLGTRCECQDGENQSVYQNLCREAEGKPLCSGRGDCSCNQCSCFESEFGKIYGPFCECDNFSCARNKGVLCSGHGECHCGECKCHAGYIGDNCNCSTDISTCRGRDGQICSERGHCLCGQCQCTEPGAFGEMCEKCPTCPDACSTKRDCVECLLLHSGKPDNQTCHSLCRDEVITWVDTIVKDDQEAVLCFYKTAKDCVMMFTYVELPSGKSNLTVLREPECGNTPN

Row | Binder | dissociation constant (KD)
1 | KKK[hCys]VSRGDTFA[Dab(acetyl)] (thioether 4-13) [Cyclic peptide 149] | ≤ 50 nM
2 | KKK[hCys]VTRGDTFA[Dab(acetyl)] (thioether 4-13) [Cyclic peptide 150] | ≤ 50 nM
3 | KKK[hCys]VPRGDVFA[Dab(acetyl)] (thioether 4-13) [Cyclic peptide 151] | ≤ 50 nM
4 | KKK[hCys]VPRGDTFG[Dab(acetyl)] (thioether 4-13) [Cyclic peptide 152] | ≤ 50 nM
5 | KKK[hCys]VPRGDTFS[Dab(acetyl)] (thioether 4-13) [Cyclic peptide 153] | ≤ 50 nM
6 | KKK[hCys]TTRGDTFA[Dab(acetyl)] (thioether 4-13) [Cyclic peptide 155] | ≤ 50 nM
7 | KKK[hCys]TTRGDSFA[Dab(acetyl)] (thioether 4-13) [Cyclic peptide 157] | ≤ 50 nM
8 | KKK[Dab(acetyl)]VPRGDTFAC (thioether 4-13) [Cyclic peptide 141] | ≤ 50 nM
9 | KKKA[Dab(acetyl)]VPRGDTFACA (thioether 5-14) [Cyclic peptide 142] | ≤ 50 nM
10 | KKK[Dab(acetyl)]VPRGDNFC (thioether 4-12) [Cyclic peptide 143] | ≤ 50 nM
11 | KKKA[hCys]TPRGDTFA[Dab(acetyl)] (thioether 5-14) [Cyclic peptide 158] | ≤ 50 nM
12 | KKKA[hCys]VPRGDTFA[Dab](COCH2) (thioether 5-14) [Cyclic peptide 164] | ≤ 50 nM
13 | KKK[hCys]TPRGDTFA[Dab](COCH2)A (thioether 4-13) [Cyclic peptide 159] | ≤ 50 nM
14 | KKK[hCys]VPRGDTFA[Dab](COCH2)A (thioether 4-13) [Cyclic peptide 165] | ≤ 50 nM
15 | KKKA[hCys]IPRGDSFA[Dab](COCH2) (thioether 5-14) [Cyclic peptide 162] | ≤ 50 nM
16 | KKK[hCys]IPRGDSFA[Dab](COCH2)A (thioether 4-13) [Cyclic peptide 163] | ≤ 50 nM
17 | KKKA[Dap](COCH2)EPRGDNYRC (thioether 5-14) [Cyclic peptide 166] | ≤ 50 nM

These binders were tested against T1, human integrin αvβ5 (assay: SPR, Biacore 3000, peptide immobilised; B = KD more than 50 nM and 100 nM or less).

Row | Binder | dissociation constant (KD)
18 | KKK[hCys]VPRGDTFT[Dab(acetyl)] (thioether 4-13) [Cyclic peptide 154] | 50 to 100 nM
19 | KKK[hCys]TPRGDSFA[Dab(acetyl)] (thioether 4-13) [Cyclic peptide 156] | 50 to 100 nM
20 | KKKA[hCys]TTRGDSFA[Dab](COCH2)A (thioether 5-14) [Cyclic peptide 161] | 50 to 100 nM
21 | KKK[Dap](COCH2)EPRGDNYRC (thioether 4-13) [Cyclic peptide 167] | 50 to 100 nM

The binders below were run against T1, human integrin αvβ5 (assay: SPR, Biacore 3000, peptide immobilised; C = KD more than 100 nM and 200 nM or less).
Procedure: However, only for the cyclic peptides 125, 126, and 127, in which the number of lysine residues having an amino group as the immobilizing functional group was zero, the amount of the sample solution to be supplied to the sensor chip was set to 500 μL instead of 20 μL. Further, 70 μL of the mixed aqueous solution of 0.2 M EDC and 0.04 M NHS was added to another flow channel of the same sensor chip without immobilizing the sample, and then blocking treatment and washing treatment were carried out. Hereinafter, the obtained immobilization-treated sensor chip is referred to as an “immobilization-treated sensor chip A”.
After adding human integrin αvβ5 for 10 minutes at 25° C., which was diluted to 30 nM using a HEPES buffer solution to which magnesium chloride was added to 5 mM, in each flow channel of the immobilization-treated sensor chip A prepared in (1) above, the same HEPES buffer solution (containing 5 mM magnesium chloride) was allowed to flow as a running buffer for 30 minutes, and measurement was carried out with Biacore 3000. Then, a regeneration treatment of removing human integrin αvβ5 was carried out by allowing a 0.5 M EDTA aqueous solution to flow through each flow channel for 10 minutes. Further, the above-described measurement process consisting of adding integrin for 10 minutes, allowing a running buffer to flow for 30 minutes, carrying out measurement with Biacore 3000, and carrying out regeneration treatment with 0.5 M EDTA aqueous solution was carried out in the same manner for 100 nM human integrin αvβ5, 300 nM human integrin αvβ5, and 1,000 nM human integrin αvβ5. Dissociation constant between the cyclic peptide and human integrin αvβ5 was calculated from the difference between the value measured by Biacore 3000 in the flow channel immobilized with the cyclic peptide and the value measured by Biacore 3000 in the flow channel unimmobilized with the cyclic peptide, in a case where each concentration of human integrin αvβ5 was allowed to flow, and the integrin binding property was evaluated according to the following evaluation standards. It is preferable that the evaluation result satisfies the evaluation standard A, B, or C.

Row | Binder | dissociation constant (KD)
22 | KKKA[hCys]EPRGDSYR[Dab](COCH2)D (thioether 5-14) [Cyclic peptide 33] | 100 to 200 nM
23 | KKKA[hCys]EPRGDNYD[Dab](COCH2)D (thioether 5-14) [Cyclic peptide 35] | 100 to 200 nM
24 | B1 | 100 to 200 nM
25 | B2 | 100 to 200 nM
26 | KKK[hCys]PRGDNFR[Dab(acetyl)]A (thioether 4-12) [Cyclic peptide 9] | 100 to 200 nM
